# Experimental data taken from patent publication US20210054047A1, “NOVEL ANTICANCER FUSION PROTEIN AND USE THEREOF” (KOREA INSTITUTE OF SCIENCE AND TECHNOLOGY, priority 2018, published 2021).
# What was measured:
# [1] = tested on: HepG2 tumors; conditions: mouse, in vivo, iv
# Procedure: The delivery efficiency of TTPN to the tumor microenvironment was investigated by performing an in vivo biodistribution study (n=4 mice/group) of Cy5.5-labeled TTPN using the eXplore Optix System (Advanced Research Technologies Inc., USA). […] Free-Cy5.5 was separated by ultrafiltration (Amicon Ultra 100 K, Millipore), and the fluorescence intensity of the Cy5.5-labeled protein was measured using a fluorescence microplate reader (Infinite M200 Pro, TECAN, Austria). […] The fluorescence intensity of all samples was adjusted to the same value based on the data obtained using a fluorescence microplate reader. To analyze the fluorescence intensity of tumors, the Analysis Workstation software (Advanced Research Technologies Inc.) was used to calculate total photons per […] per steradian (p/s/cm^2/sr) in the region of interest (ROI). At 24 hours post-injection, the mice were sacrificed, and tumors and major organs including liver, lung, spleen, kidney and heart were excised and analyzed in the same manner as described above.
# [2] = tested on: HepG2 cells; experiment: Cell viability, CCK-8 assay, HepG2; format: cell-based, human; conditions: TRAIL-sensitive HepG2 cells, 24 hours (FIG. 17)
# Procedure: (§1) After culturing for 24 hours, cell viability was measured using a cell counting kit (CCK)-8 assay (Dojindo Molecular Technologies, Gaithersburg, Md.). The plate was then read with an absorbance microplate reader (Spectramax 340, Molecular Devices Corporation) at a wavelength of 450 nm and 50% effective by regression analysis using SigmaPlot software (Systat Software, Inc., San Jose, Calif.). The concentration value was calculated.
# [3] = tested on: HT29 tumor; experiment: TUNEL analysis of HT29 tumor tissue; format: in vivo, mouse; conditions: HT29 tumor tissue at the end of the study
# From the text: In the evaluation of the anti-tumor effect of the present invention, BALB/c nude male mice (6-7 weeks old) were used as an animal model. Particularly, HT29 cells (5×10^6) and HepG2 cells (5×10^6) were subcutaneously inoculated into the left dorsal flank of BALB/c nude mice, respectively. After a volume of tumors reached ˜80-100 mm^3, mice were randomly divided into the 14 following five treatment groups (6 mice/group); DOX-TTPNs, DOX-FTNs, free DOX, empty TTPNs, and buffer. Mice were intravenously injected five times, once every 2 days, and volume of tumors was determined as 1/2(Length×Width^2). Apoptotic cell death in tumor tissues was analyzed using TUNEL staining (In situ Cell Death Detection kit; Roche), and cells were stained with DAPI (4′,6-diamidino-2-phenylindole), as previously described (Kih et al., Biomaterials 180: 67-77, 2018). Apoptotic cells were visualized under a Nikon Eclipse Ti microscope (Nikon) and quantified as the number of TUNEL-positive cells per total number of cells using ImageJ software. After 21 days from injecting tumor cells, tumor tissues were excised from the experimental mice, and cryo-sections (3.5 μm) were fixed with 10% neutral buffered formalin and paraffin-embedded tissue blocks.
# [4] = tested on: DR5; experiment: Western blot time course of DR5 levels in HT29; format: cell-based, human; conditions: HT29, 4, 12 and 24 hours
# [5] = tested on: HT29 cells; experiment: Annexin V early apoptosis flow cytometry, HT29; format: cell-based, human; conditions: HT29, low concentrations, 24 hours
# Procedure: HepG2, HT29, or MCF7 cells (1.5×10^4) were cultured in a 96-well plate for 1 day, after which DOX-TTPNs, DOX-FTNs, free DOX, empty TTPNs, or buffer was added to each well. After 24 hours, cell viability was measured using a CCK-8 assay (Dojindo Molecular Technologies) according to the manufacturer's instructions. For analysis of early apoptosis, HT29 cells in 6-18 well culture plate were treated with DOX-TTPNs, free DOX, empty TTPNs, or buffer for 24 hours. Thereafter, cells were incubated with Alexa Fluor 488-conjugated annexin V (Invitrogen) 20 for 15 minutes, then analyzed using an Accuri™ C6 flow cytometer (BD Biosciences) and FlowJo 21 v10 software.
# [6] = tested on: HT29 tumor; experiment: Antitumor efficacy, HT29 xenograft; format: in vivo, mouse; conditions: i.v. five times every 2 days, DOX-TTPNs 30 mg/kg, DOX 0.4 mg/kg, DOX-FTNs 15 mg/kg, empty TTPNs 30 mg/kg
# From the text: In the evaluation of the anti-tumor effect of the present invention, BALB/c nude male mice (6-7 weeks old) were used as an animal model. Particularly, HT29 cells (5×10^6) and HepG2 cells (5×10^6) were subcutaneously inoculated into the left dorsal flank of BALB/c nude mice, respectively. After a volume of tumors reached ˜80-100 mm^3, mice were randomly divided into the 14 following five treatment groups (6 mice/group); DOX-TTPNs, DOX-FTNs, free DOX, empty TTPNs, and buffer. Mice were intravenously injected five times, once every 2 days, and volume of tumors was determined as 1/2(Length×Width^2).
# To this end, HT29 cells were implanted in mice, and after tumor volumes reached approximately 80˜100 mm^3, mice were intravenously injected with 30 mg/kg of DOX-TTPNs (equivalent to a DOX dose of 0.4 mg/kg), 0.4 mg/kg of DOX, 15 mg/kg of DOX-FTNs (equivalent to the number of moles of ferritin in a dose of TTPNs), or 30 mg/kg of empty TTPNs (equivalent to the number of moles of TRAIL in a dose of TTPNs) five times every 2 days, respectively.
# [7] = Dynamic light scattering (DLS) size; format: physicochemical
# [8] = biological target: T1, DR4 (Homo sapiens, UniProt O00220); experiment: SPR binding to immobilized DR4-Fc
# T1 construct: purchased R&D systems 347-DR-100
# Procedure: Binding experiments of TTPN and mTRAIL to TRAIL receptors DR4 and DR5 were analyzed at 25° C. using a surface plasmon resonance apparatus (SR7500 DC, Reichert Inc., NY, USA). DR4 and DR5-fc chimeric proteins (R&D systems 347-DR-100, 631-T2-100) were immobilized on the surface of the Planar Protein A sensor chip (Reichert, 13206069) and the receptors were coated at a level of 300 to 500 resonance units. SPR kinetic titrations were performed by adding 250 μl of TTPN and mTRAIL with different concentrations in the range of 1.56 to 400 nM and 0.1 to 25.6 μM, respectively, increasing by four times. Each analyte was run at 50 μL/min using running and sample buffer (0.5 M Tris-HCl (pH 7.4), 150 mM NaCl, 0.005% Tween 20), and binding of the ligand to the receptor was performed and monitored in real time. For titration sensorgrams, a simple 1:1 Langmuir interaction model (A+B↔AB) was applied using the data analysis program Scrubber 2.0 (BioLogic Software, Australia, and KaleidaGraph Software, Australia) and CLAMP software.
# The affinity KD was determined from the formula of KD=kd/ka. Results are based on representative sensorgrams obtained from saturation binding reactions averaged over at least three independent runs of SPR measurements (FIG. 31).
# [9] = tested on: HEK293T cells; experiment: Cell viability, CCK-8 assay, HEK293T normal cells; format: cell-based; conditions: HEK293T normal cells (FIG. 18)
# Procedure: as §1
# [10] = tested on: XIAP; experiment: Western blot of HT29 lysates: XIAP; format: cell-based, human; conditions: HT29, 24 hours
# Procedure: (§2) After incubating HT29 cells with 50 nM DOX-TTPNs, DOX-FTNs, free DOX, or buffer for 24 hours, cells were lysed with radioimmunoprecipitation assay (RIPA) buffer (Cell Signaling Technology) and the concentration of proteins was measured using a DC protein assay kit (Bio-Rad). Equal amounts of proteins (30 μg) were resolved by SDS-PAGE and transferred to nitrocellulose membranes. After blocking with 5% skim milk in Tris-buffered saline containing 0.1% Tween-20 (TBST), membranes were incubated first with anti-Cl-PARP, anti-Cl-caspase-6, anti-cFLIP, anti-Bcl-xL, anti-XIAP, anti-Cl-caspase-3, or anti-GAPDH primary antibody (Cell Signaling Technology), and then with anti-mouse or anti-rabbit secondary antibodies (Sigma-Aldrich), as appropriate. Immunoreactive proteins were visualized using enhanced chemiluminescence (ECL) chemical reagents (Bio-Rad) and ChemiDoc (Bio-Rad), and were analyzed using ImageJ software.
# [11] = In vitro stability (soluble protein in buffer over time); format: physicochemical
# Procedure: The stability of TTPN, DOX-TTPN and mTRAIL was investigated by measuring changes of concentration in a suitable buffer solution. […] At predetermined times, aggregated proteins were collected at 13,000 rpm for 10 minutes, and the concentration of soluble DOX-TTPN and TTPN in the supernatant was measured using absorbance in UV280.
# [12] = tested on: PARP; experiment: Western blot of HT29 lysates: PARP; format: cell-based, human; conditions: HT29, 24 hours
# Procedure: as §2
# T1 sequence (O00220 with tags, fused parts or gaps limits assumed): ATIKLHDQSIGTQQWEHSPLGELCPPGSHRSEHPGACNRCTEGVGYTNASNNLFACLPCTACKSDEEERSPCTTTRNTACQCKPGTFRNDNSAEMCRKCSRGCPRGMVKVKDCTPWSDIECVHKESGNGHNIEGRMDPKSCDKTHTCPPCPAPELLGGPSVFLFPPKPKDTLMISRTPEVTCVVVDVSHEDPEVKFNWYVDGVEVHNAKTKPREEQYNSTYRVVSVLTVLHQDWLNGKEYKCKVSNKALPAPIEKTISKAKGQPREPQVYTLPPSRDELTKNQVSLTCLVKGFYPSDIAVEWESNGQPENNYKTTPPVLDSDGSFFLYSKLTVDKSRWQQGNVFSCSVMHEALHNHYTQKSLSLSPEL
substance,measurement,setting,value
TTPN: protein nanocage presenting TRAIL as natural-like homo-trimers; TRAIL 95-281 fused by linker peptide to human ferritin heavy chain,fluorescence intensity of tumors,[1],higher than that of wtFTN and mTRAIL
same,apoptosis,[2],concentration-dependent apoptosis
same,TUNEL-positive tumor cells,[3],0.01%
same,DR5 expression levels over time,[4],no significant change
same,induction of early apoptosis,[5],ineffective in inducing apoptosis
same,decrease of tumor volumes,[6],no significant tumor-inhibition effect
same,average size (DLS),[7],25.85 nm
same,ka,"[8]; DR4-Fc immobilized, 25° C.",3.23 (±0.26) · 10^4 M^−1 · S^−1
same,kd,"[8]; DR4-Fc immobilized, 25° C.",2.42 (±0.48) · 10^−5 s^−1
same,increased affinity compared with monomeric TRAIL,[8]; for DR4 and DR5,up to 330 fold
same,apoptosis,[9],low apoptosis rate
same,decrease in XIAP levels compared with buffer treatment,[10],no significant effect
same,stability in solution,[11]; 15 mg/mL in PBS buffer for 24 hours (FIG. 15),remarkably improved stability
same,amount maintained in the soluble form,"[11]; after 1 month, 10 mg/mL (FIG. 16)",more than 90%
same,increase in PARP relative to buffer-treated controls (defined as 1),[12],457 fold
